Data set [1] can be described thus: CSF clearance study: microinjection into the lateral ventricle. Type of data set: in vivo. The settings on record: 40 nM; after 30 minutes; microinjection into the lateral ventricles; FIG. 1E. As for the experimental part: In the CSF clearance studies, 0.5 μl of ^125I-apoJ (40 nM) was micro-injected into the right lateral ventricles (coordinates (mm) from bregma: antero-posterior −0.5, mediolateral +1.0, dorsoventral −2.2) simultaneously with ^14C-inulin (the inert reference molecule), the brain was removed after 30 minutes, and radiolabel was counted.
(§1) Percentage ^125I-(TCA precipitable) recovery in brain=NB/NI×100. Where NB is the ^125I-(TCA precipitable) recovered in brain and NI is the ^125I-(TCA precipitable) injected into brain ISF or CSF. Total ^125I-(TCA precipitable) clearance from brain ISF consists of two components: clearance across the BBB and clearance via bulk flow of ISF. Therefore, clearance across the BBB was calculated from the difference between total ^125I-(TCA precipitable) clearance and ^14C-inulin clearance (ISF bulk flow) as described (Shibata et al., 2000). Similarly, the percentage ^125I-(TCA precipitable) recovery in brain after microinjection into the CSF=NB/NI×100.

Data set [2] in a line: Brain clearance technique: clearance of radiolabelled tracer from brain ISF and across the BBB after microinjection into the caudate nucleus. The format is in vivo. The settings on record: for clearance from the brain ISF: 40 nM tracer microinjected into brain ISF, FIG. 1A/1B. The procedure:
The brain clearance technique was used to determine Aβ clearance across the BBB and from CSF, as previously described (Shibata et al., 2000; Deane et al., 2004). Briefly, 0.5 μl of ^125I-Aβ42 (40 nM), ^125I-apoJ (40 nM) or ^125I-Aβ-apoJ (40 nM) was microinjected into the caudate nucleus simultaneously with ^14C-inulin (an inert reference molecule as an index of interstitial fluid (ISF) bulk flow) and, after 30 minutes (a typical time point unless stated), the brain was removed and radiolabel was counted.
^125I-Aβ-apoJ complex was prepared by incubating ^125I-Aβ42 and apoJ at a molar ratio of 15 to 1 (^125I-Aβ42: apoJ) at 37° C. for 3 hours, and excess ^125I-Aβ42 was removed by ultrafiltration with a 30 kD molecular weight cut-off membrane.
as §1

Where [3] appears, read: after microinjection into the brain, FIG. 1C.

Regarding “^125I-apoJ: apolipoprotein J, an 80 kDa sulfated glycoprotein, ligand of LRP2, radioiodinated tracer”, in data set [1], the “clearance from the CSF as compared to ^14C-inulin” value is reported as “rapidly cleared”. Moreover, the “clearance from the brain ISF” value in data set [2] is reported as “rapidly cleared”. The “clearance from brain relative to ^125I-Aβ42 (40 nM)” value in data set [2] (40 nM, time-dependent clearance, FIG. 1B) is recorded as “substantially faster”. Moreover, in data set [2] (setting [3]), the “levels in plasma, compared to inulin” value was “relatively increased” and the “time dependent appearance of TCA precipitable radioactivity in CSF, compared to ^14C-inulin” value is listed as “decreased”.

With “inulin [^14C-inulin, reference compound]”, the “clearance from the brain ISF” value in data set [2] is listed as “slowly removed”.

As for “^125I-Aβ42: amyloid-β peptide Aβ42, amyloidogenic with high β-sheet content, radioiodinated tracer [reference compound]”, in data set [2] (in vivo), the “clearance of ^125I-Aβ42 across the BBB” value is 22%±2% and the “clearance via the ISF bulk flow” value is “no a significant change”.
